In US9074238B2, “Methods for enhancing neprilysin activity and degrading amyloid-beta peptides and oligomers in a subject with Alzheimer's disease” (ACADEMIA SINICA, priority 2011, dated 2015):
“Also recorded” adds a separate entry of the source. Primed or numbered codes have the meaning given here. *: point of attachment. Alexa‑350 = fluorescent label on the Cys side chain (double-labeled qf-Aβ(1-7)C); Dabcyl′ = CN(C)c1ccc(/N=N/c2ccc(C(=O)*)cc2)cc1

Experiments:
[1] = test system: NEP; assay: Screening of compounds for NEP activity of SH-SY5Y cells with qf-Aβ(1-7)C substrate; format: cell-based, human; details: 5 μM compound, 24 hr; 2 μM qf-Aβ(1-7)C, 1 h
Protocol: The compound number is indicated on the left of each bar. […] (**, p value<0.001; *, p value<0.01).
Analogs comprising at least three hydroxyl groups attached to the two aromatic rings of the curcumin structure scaffold (Compound 1) were particularly active in enhancing NEP activity.
Human SH-SY5Y cells were cultured in the Dulbecco's modified Eagle's medium (DMEM, Gibco, USA) supplemented with 10% fetal bovine serum (FBS; Biological industries, USA) in 5% CO2 at 37° C. The cells were harvested and re-suspended in the phenol red-free DMEM medium supplemented with 10% FBS at a density of 1×10^6 cells/mL. 100 μL of cell culture was added in each well of a 96-well plate. The compounds (no. 1 to no. 24) were dissolved in DMSO, and the others (no. 25 and no. 26) were dissolved in sterilized water to make the stock solution (1 mM). Each compound was mixed with phenol red-free DMEM supplemented with 10% FBS to a final concentration of 10 μM. 100 μL of the medium containing 10 μM indicated compound was added into the wells to make the final compound concentration 5 μM. After incubation for 24 hr, the medium of the culture was replaced with the phenol red-free DMEM medium (not FBS) containing 2 μM qf-Aβ(1-7)C and incubation continued for additional 1 h. To measure the proteolytic activity, 100 μL of the medium was taken out for fluorescence measurement on SpectraMax Gemini EM (Molecular Devices, USA) with excitation at 346 nm and emission at 442 nm. The average of three replicate wells was used for each sample and control.

[2] = biological target: T1, recombinant human NEP (Homo sapiens, UniProt P08473); assay: Fluorogenic enzyme assay, peptide substrate digested by NEP; format: biochemical
T1 construct: purchased R&D Systems (USA)
T1 sequence (P08473 whole entry): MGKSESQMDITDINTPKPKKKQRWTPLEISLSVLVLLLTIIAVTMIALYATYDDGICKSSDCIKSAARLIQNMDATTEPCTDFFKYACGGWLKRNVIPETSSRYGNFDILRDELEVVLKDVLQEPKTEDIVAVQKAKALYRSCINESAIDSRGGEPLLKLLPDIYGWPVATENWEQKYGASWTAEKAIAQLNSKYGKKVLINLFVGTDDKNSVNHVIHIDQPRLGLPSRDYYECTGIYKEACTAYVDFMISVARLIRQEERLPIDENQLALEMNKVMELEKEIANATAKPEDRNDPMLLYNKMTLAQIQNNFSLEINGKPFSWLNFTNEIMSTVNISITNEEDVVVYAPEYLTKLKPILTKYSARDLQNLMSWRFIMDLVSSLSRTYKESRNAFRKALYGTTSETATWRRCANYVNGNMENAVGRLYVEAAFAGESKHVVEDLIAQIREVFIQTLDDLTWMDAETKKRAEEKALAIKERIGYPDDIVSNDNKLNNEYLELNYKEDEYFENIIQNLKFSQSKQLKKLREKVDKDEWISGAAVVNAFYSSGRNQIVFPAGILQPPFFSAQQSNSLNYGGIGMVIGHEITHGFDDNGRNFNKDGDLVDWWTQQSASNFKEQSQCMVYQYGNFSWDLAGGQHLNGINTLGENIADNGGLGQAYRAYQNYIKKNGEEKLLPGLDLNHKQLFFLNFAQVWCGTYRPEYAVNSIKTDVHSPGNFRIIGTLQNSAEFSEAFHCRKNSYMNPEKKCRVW
Protocol: To determine the optimal reaction conditions, 0.92 nM NEP was mixed with different concentrations of qf-Aβ(1-7)C, then, after incubation for 1, 2, 3, or 4 h at 37° C., the peptide-degrading activity of NEP was measured by recording fluorescence emission at 465 nm. The fluorescence intensity increased at least 40-fold with the degradation of the quenched fluorogenic peptide. […] Incubation for 1 h was sufficient for detection. At higher substrate concentrations, the fluorescence intensity was much larger, but the error increased. To test whether the sensitivity of NEP detection was increased when a higher substrate concentration was used, 1.84 μM qf-Aβ(1-7)C was mixed with different concentrations of NEP and reacted at 37° C. for 1, 2, 3, or 4 h and the fluorescence emission at 465 nm measured (FIG. 4). […] The substrate concentration of 1.84 μM or more was therefore used in the following studies.
To determine the optimal substrate concentration in the fluorogenic enzyme assay, NEP (0.5 mg/mL) and substrate peptide qf-Aβ(1-7)C (1 mM) were mixed in 50 mM Tris-HCl (pH 7.5), 25 mM NaCl, 5 μM ZnCl2 to a final NEP concentration of 0.92 nM and peptide concentrations of 0.46, 0.92, 1.84, 3.68, or 7.36 μM and placed on a 96-well plate (Corning, USA). The final volume of the reaction solution was kept as 200 μL. The enzyme reaction was performed in the dark at 37° C. and the fluorescence was measured at 1, 2, 3, and 4 h with excitation at 360 nm and emission at 465 nm on a Paradigm™ Detection Platform (Beckman Coulter, USA) (FIG. 3). […] The enzyme reaction was performed in the dark at 37° C. and the fluorescence was measured at 1, 2, 3, and 4 h. […]
(§1) One commercially available quenched fluorogenic peptide substrate, Dansyl-^DAGF(pNO2)G, was tested for comparison. The fluorescence of dansyl is quenched by the presence of nitrophenyl group. Digestion was monitored by the fluorescence increase of dansyl at 562 nm when excited at 342 nm. […]

[3] = biological target: T2, insulin-degrading enzyme (IDE) (Homo sapiens, UniProt P14735); assay: Fluorogenic enzyme assay, peptide substrate digested by IDE; format: biochemical
T2 construct: purchased R&D Systems (USA)
Protocol: (§2) Recombinant human NEP (0.5 mg/mL), insulin-degrading enzyme (IDE) (0.386 mg/mL), endothelin-converting enzyme 1 (ECE-1) (0.298 mg/mL), matrix metalloproteinases (MMP)-3 (0.124 mg/mL) and MMP-9 (0.5 mg/mL), and angiotensin-converting enzyme (ACE) (0.434 mg/mL) were purchased from R&D Systems (USA). Human plasmin (1 mM) was purchased from Sigma (USA). […] MMP-3 and MMP-9 were pre-activated by incubation at 37° C. for 24 h with 1 mM p-aminophenylmercuric acetate. The quenched fluorogenic peptide substrate qf-Aβ(1-7)C (0.4 μL of the 1 mM stock in DMSO) was mixed with different concentrations of enzyme solution (final peptide concentration 2 μM) on a 96-well plate. The final volume of the reaction solution was kept as 200 μL. The mixture was incubated in the dark for 1, 2, 3, or 4 h at 37° C., and then the fluorescence was measured with excitation at 360 nm and emission at 465 nm on a Paradigm™ Detection Platform (Beckman Coulter, USA) (FIG. 5).
The assay system was sensitive enough to detect as low as 0.10 nM NEP. […]
as §1

[4] = biological target: T3, angiotensin-converting enzyme (ACE) (Homo sapiens, UniProt P12821); assay: Fluorogenic enzyme assay, peptide substrate digested by ACE; format: biochemical; details: 2 μM substrate
T3 construct: purchased R&D Systems (USA)
T3 sequence (P12821 30-1306): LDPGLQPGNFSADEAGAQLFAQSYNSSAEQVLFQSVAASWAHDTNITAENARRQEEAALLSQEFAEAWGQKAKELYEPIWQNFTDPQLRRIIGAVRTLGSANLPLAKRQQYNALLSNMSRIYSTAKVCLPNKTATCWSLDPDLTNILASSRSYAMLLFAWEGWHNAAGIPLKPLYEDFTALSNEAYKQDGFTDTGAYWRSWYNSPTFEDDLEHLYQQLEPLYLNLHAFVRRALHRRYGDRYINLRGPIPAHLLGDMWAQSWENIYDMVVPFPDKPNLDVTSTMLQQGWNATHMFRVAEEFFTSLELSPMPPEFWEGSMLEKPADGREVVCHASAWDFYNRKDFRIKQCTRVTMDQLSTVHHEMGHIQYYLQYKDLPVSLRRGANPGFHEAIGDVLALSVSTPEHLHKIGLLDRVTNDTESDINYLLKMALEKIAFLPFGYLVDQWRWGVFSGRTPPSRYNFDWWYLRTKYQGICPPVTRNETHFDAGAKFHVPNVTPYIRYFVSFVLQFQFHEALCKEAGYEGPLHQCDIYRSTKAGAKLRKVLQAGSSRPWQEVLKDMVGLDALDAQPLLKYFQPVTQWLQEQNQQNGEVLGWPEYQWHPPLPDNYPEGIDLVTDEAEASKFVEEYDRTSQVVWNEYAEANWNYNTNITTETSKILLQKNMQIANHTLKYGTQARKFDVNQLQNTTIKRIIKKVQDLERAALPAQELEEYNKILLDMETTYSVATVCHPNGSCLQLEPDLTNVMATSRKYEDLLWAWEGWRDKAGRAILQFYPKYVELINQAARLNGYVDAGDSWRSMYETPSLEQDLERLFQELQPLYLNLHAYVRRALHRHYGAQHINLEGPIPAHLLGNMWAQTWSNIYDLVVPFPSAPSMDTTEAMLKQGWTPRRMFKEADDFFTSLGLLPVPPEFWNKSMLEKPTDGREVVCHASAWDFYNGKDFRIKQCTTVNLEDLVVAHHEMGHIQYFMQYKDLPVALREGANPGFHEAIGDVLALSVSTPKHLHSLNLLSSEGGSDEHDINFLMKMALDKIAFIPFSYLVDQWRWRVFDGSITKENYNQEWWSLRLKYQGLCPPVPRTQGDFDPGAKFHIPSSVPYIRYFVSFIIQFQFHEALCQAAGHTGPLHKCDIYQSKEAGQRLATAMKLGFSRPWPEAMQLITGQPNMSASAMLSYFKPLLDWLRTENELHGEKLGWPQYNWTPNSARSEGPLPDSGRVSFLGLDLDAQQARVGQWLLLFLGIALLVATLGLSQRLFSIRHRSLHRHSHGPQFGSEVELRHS
Protocol: as §2
One commercially available quenched fluorogenic peptide substrate, Dansyl-^DAGF(pNO2)G, was tested for comparison. The fluorescence of dansyl is quenched by the presence of nitrophenyl group. Digestion was monitored by the fluorescence increase of dansyl at 562 nm when excited at 342 nm. […] This substrate also has enzyme specificity. It is sensitive to NEP and ACE (FIG. 8B). […]

[5] = biological target: T4, MMP-3 (Homo sapiens, UniProt P08254); assay: Fluorogenic enzyme assay, peptide substrate digested by MMP-3; format: biochemical; details: 2 μM substrate
T4 construct: purchased R&D Systems (USA)
T4 sequence (P08254 100-477): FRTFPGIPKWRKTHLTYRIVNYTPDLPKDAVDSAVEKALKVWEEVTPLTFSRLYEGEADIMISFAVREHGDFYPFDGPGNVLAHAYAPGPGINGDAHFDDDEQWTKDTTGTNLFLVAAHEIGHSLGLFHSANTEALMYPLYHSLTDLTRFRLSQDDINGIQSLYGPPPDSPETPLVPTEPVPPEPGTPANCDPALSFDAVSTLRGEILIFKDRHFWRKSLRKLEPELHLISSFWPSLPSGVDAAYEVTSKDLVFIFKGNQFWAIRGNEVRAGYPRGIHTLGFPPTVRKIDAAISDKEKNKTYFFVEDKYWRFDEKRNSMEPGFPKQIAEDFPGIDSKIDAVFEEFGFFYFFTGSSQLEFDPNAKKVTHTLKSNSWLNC
Protocol: as §2

[6] = biological target: T5, Human plasmin (Homo sapiens, UniProt P00747); assay: Fluorogenic enzyme assay, peptide substrate digested by plasmin; format: biochemical; details: 2 μM substrate
T5 construct: Human plasmin (1 mM) was purchased from Sigma (USA); purchased Sigma (USA)
T5 sequence (P00747 581-810 limits assumed): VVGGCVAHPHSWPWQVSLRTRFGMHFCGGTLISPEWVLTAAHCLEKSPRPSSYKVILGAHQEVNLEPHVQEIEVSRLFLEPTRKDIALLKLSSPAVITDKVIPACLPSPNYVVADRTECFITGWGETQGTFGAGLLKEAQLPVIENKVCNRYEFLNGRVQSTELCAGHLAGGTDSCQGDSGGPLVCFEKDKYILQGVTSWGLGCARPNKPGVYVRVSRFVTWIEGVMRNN
T5 sequence (P00747 97-580 partner limits assumed): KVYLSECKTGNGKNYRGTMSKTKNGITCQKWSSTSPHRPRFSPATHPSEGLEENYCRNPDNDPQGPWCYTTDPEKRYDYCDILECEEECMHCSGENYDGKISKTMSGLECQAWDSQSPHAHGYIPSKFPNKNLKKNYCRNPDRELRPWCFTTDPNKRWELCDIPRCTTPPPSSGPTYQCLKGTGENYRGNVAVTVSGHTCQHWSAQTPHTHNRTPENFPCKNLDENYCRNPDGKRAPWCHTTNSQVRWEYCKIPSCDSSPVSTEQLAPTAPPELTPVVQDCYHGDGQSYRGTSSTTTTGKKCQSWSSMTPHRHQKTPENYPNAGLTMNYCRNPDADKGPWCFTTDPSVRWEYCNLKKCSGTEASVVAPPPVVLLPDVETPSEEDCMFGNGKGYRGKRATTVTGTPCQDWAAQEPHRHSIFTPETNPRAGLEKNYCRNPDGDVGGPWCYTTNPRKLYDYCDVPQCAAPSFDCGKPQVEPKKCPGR
Protocol: as §2

[7] = biological target: T6, endothelin-converting enzyme 1 (ECE-1) (Homo sapiens, UniProt P42892); assay: Fluorogenic enzyme assay, peptide substrate digested by ECE-1; format: biochemical; details: 2 μM substrate, pH 7.5, 37° C.
T6 construct: purchased R&D Systems (USA)
T6 sequence (P42892 1-770): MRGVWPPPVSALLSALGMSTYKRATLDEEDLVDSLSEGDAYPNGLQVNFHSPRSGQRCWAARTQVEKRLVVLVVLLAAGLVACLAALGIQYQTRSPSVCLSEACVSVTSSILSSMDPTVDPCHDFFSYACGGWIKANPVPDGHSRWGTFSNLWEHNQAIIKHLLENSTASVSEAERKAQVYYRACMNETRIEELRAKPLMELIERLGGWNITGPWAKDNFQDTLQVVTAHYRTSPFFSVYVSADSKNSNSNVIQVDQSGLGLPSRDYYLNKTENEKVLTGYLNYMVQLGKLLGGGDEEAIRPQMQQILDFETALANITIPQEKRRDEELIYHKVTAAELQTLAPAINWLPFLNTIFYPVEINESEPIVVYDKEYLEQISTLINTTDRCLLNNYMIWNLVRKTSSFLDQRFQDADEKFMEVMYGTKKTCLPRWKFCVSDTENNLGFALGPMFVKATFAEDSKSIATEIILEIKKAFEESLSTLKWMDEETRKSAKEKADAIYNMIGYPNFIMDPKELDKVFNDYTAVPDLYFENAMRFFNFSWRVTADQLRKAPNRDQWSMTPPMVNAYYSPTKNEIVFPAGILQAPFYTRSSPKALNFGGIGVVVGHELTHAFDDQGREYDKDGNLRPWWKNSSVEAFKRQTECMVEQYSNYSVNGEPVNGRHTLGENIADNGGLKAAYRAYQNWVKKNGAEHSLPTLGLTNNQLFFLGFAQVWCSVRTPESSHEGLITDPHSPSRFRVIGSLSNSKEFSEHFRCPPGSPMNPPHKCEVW
Protocol: as §2

[8] = biological target: T7, MMP-9 (Homo sapiens, UniProt P14780); assay: Fluorogenic enzyme assay, peptide substrate digested by MMP-9; format: biochemical; details: 2 μM substrate, pH 7.5, 37° C.
T7 construct: purchased R&D Systems (USA)
T7 sequence (P14780 107-707 limits assumed): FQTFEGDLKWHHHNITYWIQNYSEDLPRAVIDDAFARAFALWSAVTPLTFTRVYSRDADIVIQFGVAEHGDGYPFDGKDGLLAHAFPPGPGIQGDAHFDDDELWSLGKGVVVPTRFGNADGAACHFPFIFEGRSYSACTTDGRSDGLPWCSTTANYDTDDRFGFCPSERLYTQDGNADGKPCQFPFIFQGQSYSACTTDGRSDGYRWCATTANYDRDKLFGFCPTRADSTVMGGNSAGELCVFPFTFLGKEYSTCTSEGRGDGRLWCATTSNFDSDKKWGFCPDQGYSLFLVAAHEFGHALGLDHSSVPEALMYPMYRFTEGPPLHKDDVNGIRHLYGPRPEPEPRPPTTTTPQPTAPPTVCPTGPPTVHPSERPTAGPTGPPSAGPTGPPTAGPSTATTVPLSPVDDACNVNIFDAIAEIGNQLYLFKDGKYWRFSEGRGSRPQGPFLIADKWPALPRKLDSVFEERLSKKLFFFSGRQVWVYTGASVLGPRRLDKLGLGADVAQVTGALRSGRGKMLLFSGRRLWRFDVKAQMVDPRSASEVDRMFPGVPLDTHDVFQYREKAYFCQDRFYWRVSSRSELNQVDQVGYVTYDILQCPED
Protocol: as §2

COc1cc(C=CC(=O)CC(=O)C=Cc2ccc(O)c(O)c2)ccc1O [Compound 7, 1-(3,4-Dihydroxyphenyl)-7-(3-methoxy-4-hydroxyphenyl)-1,6-heptadiene-3,5-dione]
NEP activity of human SHSY5Y cells treated with compound (effect in words) [1]: largely enhanced NEP activity; also recorded: large enhancements of NEP activity

O=C(C=Cc1ccc(O)c(O)c1)CC(=O)C=Cc1ccc(O)c(O)c1 [Compound 8, 1,7-Bis(3,4-dihydroxyphenyl)-1,6-heptadiene-3,5-dione]
NEP activity of human SHSY5Y cells treated with compound (effect in words) [1]: largely enhanced NEP activity; also recorded: large enhancements of NEP activity

COc1cc(C=CC(=O)CC(=O)C=Cc2cc(O)c(O)c(OC)c2)cc(O)c1O [Compound 10, 1,7-Bis(3,4-dihydroxy-5-methoxyphenyl)-1,6-heptadiene-3,5-dione]
NEP activity of human SHSY5Y cells treated with compound (effect in words) [1]: largely enhanced NEP activity; also recorded: large enhancements of NEP activity

COc1ccc2ccccc2c1C=CC(=O)CC(=O)C=Cc1c(OC)ccc2ccccc12 [Compound 14, 1,7-Bis(2-methoxy-1-naphthyl)-1,6-heptadiene-3,5-dione]
NEP activity of human SHSY5Y cells treated with compound (effect in words) [1]: decreased NEP activity
decrease of NEP activity [1]: ~20%

O=C(C=Cc1ccc(O)cc1)CC(=O)C=Cc1ccc(O)c(O)c1 [Compound 20, 1-(3,4-dihydroxyphenyl)-7-(4-hydroxyphenyl)-1,6-heptadiene-3,5-dione]
NEP activity of human SHSY5Y cells treated with compound (effect in words) [1]: largely enhanced NEP activity; also recorded: large enhancements of NEP activity

qf-Aβ(1-7)C: Peptide DAEFRHDC, Aβ residues 1-7 plus C-terminal Cys, with Alexa-350 on the Cys side-chain and Dabcyl quencher at the N-terminus ({Dabcyl′}-DAEFRHDC(Alexa‑350)-OH)
lowest substrate concentration at which 0.92 nM NEP could be detected ([2]; 0.92 nM NEP, 37° C.): 0.46 µM
fluorescence intensity increase with degradation of the quenched fluorogenic peptide ([2]; 0.92 nM NEP, 37° C., emission at 465 nm): at least 40 fold
cleavage of the quenched fluorogenic peptide by NEP ([2]; 2 μM substrate, pH 7.5, 37° C.): effective
cleavage of the quenched fluorogenic peptide by IDE ([3]; 2 μM substrate, pH 7.5, 37° C.): effective
lowest IDE concentration detected ([3]; 37° C., 1 h): 0.2 nM
fluorescence increase after digestion with ACE ([4]; 1-h digestion): no significant fluorescence increase
fluorescence increase after incubation with ACE ([4]; 3 h): very weak fluorescence increase
fluorescence increase after digestion with MMP-3 ([5]; 1-h digestion): no significant fluorescence increase
fluorescence increase after incubation with MMP-3 ([5]; 3 h): very weak fluorescence increase
fluorescence increase after digestion with plasmin ([6]; 1-h digestion): no significant fluorescence increase
sensitivity of the system to plasmin ([6]; pH 7.5, 37° C.): much less sensitive
sensitivity of the system to ECE-1 [7]: insensitive; also recorded: much less sensitive
sensitivity of the system to MMP-9 [8]: insensitive; also recorded: much less sensitive
